Laboratory results from the supplement of paper PMC10567573.

B1: PTPLAD1 (parent)
chain: YINFRHLYKQRRRRYGQKKKKIH
B2: SCNN1D (parent)
chain: RRPSPVLRHLELLDEFARENIDSL

Variants of: B1
Assay: protein stability index of a GFP-peptide fusion (GPS, HEK-293T) (PSI 1-6); higher = more stable
Conditions: c terminus: native
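Further: lentivirally expressed fusions sorted by FACS into six bins by GFP to DsRed ratio, PSI derived from sequencing read proportions per bin multiplied by bin number.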

Variant	protein stability index
AINFRHLYKQRRRRYGQKKKKIH	2.93
DINFRHLYKQRRRRYGQKKKKIH	3.48
GINFRHLYKQRRRRYGQKKKKIH	2.01
CINFRHLYKQRRRRYGQKKKKIH	1.59
LINFRHLYKQRRRRYGQKKKKIH	1.79
KINFRHLYKQRRRRYGQKKKKIH	1.94
HINFRHLYKQRRRRYGQKKKKIH	2.9
EINFRHLYKQRRRRYGQKKKKIH	2.5
NINFRHLYKQRRRRYGQKKKKIH	2.97
IINFRHLYKQRRRRYGQKKKKIH	1.17

Variants of: B2
Assay: as above
Conditions: c terminus: a fixed tail appended

Variant	protein stability index
RRPSPVLRHLELLDEFAHENIDSL	3.17
RRPSPVLRHLELLDEFAPENIDSL	4.25
RRPSPVLRHLELLDEFAMENIDSL	2.98
RRPSPVLRHLELLDEFAWENIDSL	1.73
RRPSPVLRHLELLDEFAQENIDSL	2.84
RRPSPVLRHLELLDEFAVENIDSL	2.35
RRPSPVLRHLELLDEFANENIDSL	2.42
RRPSPVLRHLELLDEFAFENIDSL	3
RRPSPVLRHLELLDEFAEENIDSL	3.12
RRPSPVLRHLELLDEFAAENIDSL	2.37
RRPSPVLRHLELLDEFATENIDSL	3.16
RRPSPVLRHLELLDEFAIENIDSL	2.44
RRPSPVLRHLELLDEFAKENIDSL	3.67
RRPSPVLRHLELLDEFASENIDSL	3.26
RRPSPVLRHLELLDEFAYENIDSL	2.7
RRPSPVLRHLELLDEFACENIDSL	2.48
RRPSPVLRHLELLDEFAGENIDSL	3.6
RRPSPVLRHLELLDEFADENIDSL	3.44
RRPSPVLRHLELLDEFALENIDSL	2.43
RRPSPVLRHLELLDEFARENIDQL	2.27
RRPSPVLRHLELLDEFARENIDTL	2.74

Variant	protein stability index
RRPSPVLRHLELLDEFARENIDCL	2.5
RRPSPVLRHLELLDEFARENIDGL	3.33
RRPSPVLRHLELLDEFARENIDYL	2.46
RRPSPVLRHLELLDEFARENIDDL	2.57
RRPSPVLRHLELLDEFARENIDKL	3.56
RRPSPVLRHLELLDEFARENIDML	2.56
RRPSPVLRHLELLDEFARENIDWL	1.32
RRPSPVLRHLELLDEFARENIDPL	2.99
RRPSPVLRHLELLDEFARENIDRL	3.44
RRPSPVLRHLELLDEFARENIDLL	2.72
RRPSPVLRHLELLDEFARENIDEL	2.92
RRPSPVLRHLELLDEFARENIDAL	2.07
RRPSPVLRHLELLDEFARENIDHL	2.7
RRPSPVLRHLELLDEFARENIDIL	2.26
RRPSPVLRHLELLDEFARENIDVL	2.45
RRPSPVLRHLELLDEFARENIDNL	2.94
RRPSPVLRHLELLDEFARENIDFL	1.74
RRPSPVLRHLELLDEFARENIDSK	3.29
RRPSPVLRHLELLDEFARENIDSP	3.19
RRPSPVLRHLELLDEFARENIDST	3.3
RRPSPVLRHLELLDEFARENIDSM	2.4

Variant	protein stability index
RRPSPVLRHLELLDEFARENIDSH	2.88
RRPSPVLRHLELLDEFARENIDSR	3.17
RRPSPVLRHLELLDEFARENIDSS	3.04
RRPSPVLRHLELLDEFARENIDSQ	3.23
RRPSPVLRHLELLDEFARENIDSD	3.15
RRPSPVLRHLELLDEFARENIDSG	3.06
RRPSPVLRHLELLDEFARENIDSC	2.73
RRPSPVLRHLELLDEFARENIDSF	2.07
RRPSPVLRHLELLDEFARENIDSN	3.29
RRPSPVLRHLELLDEFARENIDSA	3.52
RRPSPVLRHLELLDEFARENIDSV	2.67
RRPSPVLRHLELLDEFARENIDSE	3.25
RRPSPVLRHLELLDEFARENIDSI	2.46
RRPSPVLRHLELLDEFARENIDSY	2.55
RRPSPVLRHLELLDEFARENIDSW	2.06
RRPSPVLRHLELLDEPARENIDSL	3.72
RRPSPVLRHLELLDEWARENIDSL	2.64
RRPSPVLRHLELLDEYARENIDSL	3.09
RRPSPVLRHLELLDELARENIDSL	3.36
RRPSPVLRHLELLDENARENIDSL	3.88
RRPSPVLRHLELLDEAARENIDSL	2.61

Variant	protein stability index
RRPSPVLRHLELLDEIARENIDSL	2.84
RRPSPVLRHLELLDEVARENIDSL	3.95
RRPSPVLRHLELLDESARENIDSL	4.57
RRPSPVLRHLELLDEEARENIDSL	3.63
RRPSPVLRHLELLDEKARENIDSL	3.91
RRPSPVLRHLELLDEQARENIDSL	3.14
RRPSPVLRHLELLDEMARENIDSL	2.25
RRPSPVLRHLELLDEDARENIDSL	4.61
RRPSPVLRHLELLDECARENIDSL	3.61
RRPSPVLRHLELLDETARENIDSL	4.21
RRPSPVLRHLELLDEHARENIDSL	3.77
RRPSPVLRHLELLDERARENIDSL	4.28
RRPSPVLRHLELLDEGARENIDSL	4.12
RRPSPVLRHLELLDEFARENIESL	2.99
RRPSPVLRHLELLDEFARENIPSL	2.22
RRPSPVLRHLELLDEFARENIGSL	2.41
RRPSPVLRHLELLDEFARENIMSL	1.47
RRPSPVLRHLELLDEFARENILSL	1.55
RRPSPVLRHLELLDEFARENIYSL	1.8
RRPSPVLRHLELLDEFARENIQSL	2.47
RRPSPVLRHLELLDEFARENITSL	2.18
